Source: patent US11389516B2, “Composition comprising UNE-L domain of leucyl-tRNA synthetase as effective ingredient for augmenting muscle” (GACHON UNIVERSITY OF INDUSTRY-ACADEMIC COOPERATION …, priority 2017, dated 2022)

Assays:
Vps34 = target: T1, Vps34 (Mus musculus, UniProt Q6PF93); experiment: In vitro Vps34 lipid kinase assay on Vps34 immune complex from MEF cells with added purified GST protein; format: biochemical; settings: FIG. 7
T1 construct: endogenous in cells; host or cells: MEF cells
T1 sequence (Q6PF93 whole entry): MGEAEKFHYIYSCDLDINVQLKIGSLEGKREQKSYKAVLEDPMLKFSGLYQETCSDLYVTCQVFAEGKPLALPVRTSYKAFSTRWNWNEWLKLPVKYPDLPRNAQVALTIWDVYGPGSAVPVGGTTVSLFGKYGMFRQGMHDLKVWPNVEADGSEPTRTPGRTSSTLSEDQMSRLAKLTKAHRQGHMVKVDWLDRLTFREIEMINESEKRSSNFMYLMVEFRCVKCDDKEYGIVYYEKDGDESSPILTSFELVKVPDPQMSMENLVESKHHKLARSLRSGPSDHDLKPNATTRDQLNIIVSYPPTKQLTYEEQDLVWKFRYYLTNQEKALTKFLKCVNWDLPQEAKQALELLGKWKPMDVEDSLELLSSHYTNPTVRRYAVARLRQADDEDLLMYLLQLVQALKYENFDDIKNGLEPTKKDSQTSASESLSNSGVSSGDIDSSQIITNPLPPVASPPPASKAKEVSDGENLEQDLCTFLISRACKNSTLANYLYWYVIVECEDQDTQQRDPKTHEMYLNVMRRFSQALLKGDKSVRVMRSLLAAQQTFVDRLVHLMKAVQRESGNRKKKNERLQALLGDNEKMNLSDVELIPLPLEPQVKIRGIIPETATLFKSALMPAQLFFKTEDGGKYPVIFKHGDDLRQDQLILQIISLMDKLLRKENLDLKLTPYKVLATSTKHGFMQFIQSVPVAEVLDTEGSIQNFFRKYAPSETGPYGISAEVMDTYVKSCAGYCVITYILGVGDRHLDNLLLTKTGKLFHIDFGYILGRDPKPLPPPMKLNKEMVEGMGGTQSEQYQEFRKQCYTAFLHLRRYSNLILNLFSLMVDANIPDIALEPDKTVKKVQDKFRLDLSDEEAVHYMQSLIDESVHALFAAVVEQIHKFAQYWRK
T1 sequence (Q8VD65 whole entry partner): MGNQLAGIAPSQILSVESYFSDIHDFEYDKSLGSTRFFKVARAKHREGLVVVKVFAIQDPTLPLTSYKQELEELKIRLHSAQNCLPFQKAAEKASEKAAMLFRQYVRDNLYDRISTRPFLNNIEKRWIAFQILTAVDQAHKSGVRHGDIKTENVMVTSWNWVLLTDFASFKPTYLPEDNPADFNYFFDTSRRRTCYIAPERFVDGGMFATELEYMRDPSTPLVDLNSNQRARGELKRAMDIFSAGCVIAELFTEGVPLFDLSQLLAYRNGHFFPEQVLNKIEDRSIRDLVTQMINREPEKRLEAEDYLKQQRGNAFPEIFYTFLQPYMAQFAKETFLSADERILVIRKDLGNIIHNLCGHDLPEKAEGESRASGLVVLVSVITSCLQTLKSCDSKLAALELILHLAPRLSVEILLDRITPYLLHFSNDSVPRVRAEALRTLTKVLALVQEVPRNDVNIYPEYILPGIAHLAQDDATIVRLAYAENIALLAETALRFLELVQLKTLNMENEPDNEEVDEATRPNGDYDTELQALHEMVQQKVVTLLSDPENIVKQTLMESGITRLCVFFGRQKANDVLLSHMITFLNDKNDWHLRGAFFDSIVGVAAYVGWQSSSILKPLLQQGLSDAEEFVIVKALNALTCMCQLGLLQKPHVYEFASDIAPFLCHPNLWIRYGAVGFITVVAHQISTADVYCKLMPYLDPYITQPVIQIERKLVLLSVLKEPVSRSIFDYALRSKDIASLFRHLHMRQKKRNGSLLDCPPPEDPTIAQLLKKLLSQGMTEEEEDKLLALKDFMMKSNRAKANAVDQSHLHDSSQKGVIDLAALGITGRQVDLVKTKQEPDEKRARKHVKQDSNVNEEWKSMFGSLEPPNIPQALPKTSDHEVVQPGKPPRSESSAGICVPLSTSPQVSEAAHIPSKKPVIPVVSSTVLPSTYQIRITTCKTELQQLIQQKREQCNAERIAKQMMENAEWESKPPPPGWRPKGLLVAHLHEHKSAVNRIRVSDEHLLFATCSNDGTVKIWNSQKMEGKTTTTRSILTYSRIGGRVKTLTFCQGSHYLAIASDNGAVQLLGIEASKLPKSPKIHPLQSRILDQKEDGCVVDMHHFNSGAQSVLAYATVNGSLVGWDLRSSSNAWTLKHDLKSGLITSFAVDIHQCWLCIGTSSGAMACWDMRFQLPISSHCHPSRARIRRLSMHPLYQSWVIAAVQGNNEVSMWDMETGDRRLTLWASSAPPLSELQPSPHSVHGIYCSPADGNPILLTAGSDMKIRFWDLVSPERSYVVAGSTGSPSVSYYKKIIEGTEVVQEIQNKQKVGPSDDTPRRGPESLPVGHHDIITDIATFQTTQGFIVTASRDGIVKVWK
Experimental: To perform in vitro Vps34 lipid kinase assay, the Vps34 immunocomplex was washed with PBS containing 1% NP-40 three times, with PBS containing 100 mM Tris (pH 7.4) containing 500 mM LiCl three times, and with TNE buffer (10 mM Tris (pH 7.4), 100 mM NaCl and 1 mM EDTA) twice, then 2 mg/ml of […] and 10 μCi ^32P-γ-ATP (PerkinElmer) were added to TNE buffer. The reaction was terminated by adding 20 μl of 8 N HCl and lipid was extracted with 160 μl of CHCl3:MeOH (1:1). ^32P-PI(3)P was separated on a thin layer chromatography plate (EMD Chemicals Inc.) using CHCl3:MeOH:NH4OH:water (60:47:2:11.3) as a solvent, followed by measuring Vps34 activity by radiograph. The activity of Vps34 was quantified by standardizing the Vps34 amount included in the immune precipitate determined by quantification of Western blotting. To measure the amount of intracellular PI(3)P, ELISA-format assay was performed according to the manufacturer's protocol, leading to quantification of the amount of PI(3)P from nonlinear fitting of the PI(3)P standard. All quantificative data was presented as mean±standard deviation of the values obtained from at least three independent experiments performed separately. Statistical significance was analyzed by student's t-test ([…]. **p≤0.01).
Particularly, MEF cells were cultured in the absence of FBS for overnight. On the next day, the cells were cultured in leucine-free DMEM for 2 hours. Anti-Atg14L antibody was added in the cell lysate thereto, followed by immunoprecipitation to eliminate Atg14L from the cell lysate. Then, anti-Vps34 antibody was added thereto, followed by immunoprecipitation of Vps34. The Vps34 immune complex was placed in TNE buffer supplemented with 2 mg/ml of PI, 10 μCi ^32P-γ-ATP (PerkinElmer) and 3.75 μg of GST protein in the presence or absence of leucine for 20 minutes at 30° C. […] All the quantification data was presented as mean±standard deviation of the values obtained from at least three independent experiments performed separately. Statistical significance was analyzed by student's t-test (*p≤0.05. **p≤0.01).

[1] = system: S6K1 phosphorylation (mTORC1 activation); experiment: Amino acid mediated mTORC1 activation through S6K1 phosphorylation, Western blotting, HEK293 cells treated with SAR405; format: cell-based
Experimental: Particularly, HEK293 cells were transducted with lentivirus expressing LRS shRNA (shLRS) or scrambled sequence shRNA (control). The cells were cultured in DMEM supplemented with 10% fetal bovine serum (FBS) in a 37° C., 5% CO2 incubator for 3 days. As for the LRS shRNA, shLRS-1 (TRCN0000290440) or shLRS-2 (TRCN0000290511) was used. As for the scrambled sequence shRNA, the sRNA previously described (Yoon, et al., J Cell Biol., 2011 195(3); 435-447) was used. Lentivirus packaging and transduction were performed according to the methods described in the following paper (Sun, et al., Proc Natl Acad Sci USA., 2008, 105(24); 8286-8291). The simultaneous expression of Vps15 and Vps34 was necessary for the stability and activity of Vps34, so the cells were transfected with bicistronic Myc-Vps34/V5-Vps15 plasmid (Yan, et al., Biochem J., 2009, 417(3); 747-755), followed by culture in the absence of FBS for overnight. On the next day, the cells were cultured in DMEM without leucine or amino acid for 2 hours, followed by stimulating the cells with 0.8 mM leucine or amino acids at the same concentration as DMEM for 30 minutes. The cell lysate was analyzed by Western blotting according to the conventional method. The intensity of the bands obtained by Western blotting was quantified by measuring the X ray film image density using Image J software.
HEK293 cells were treated with SAR405 (APExBIO, US), a Vps34 specific inhibitor, and then amino acid mediated mTORC1 activation was investigated through S6K1 phosphorylation. […] Western blotting was performed by stimulating cells with amino acids by the same manner as described in Example <1-1> except that HEK293 cells were treated with SAR405 at the concentration of 3 μM and co-transfected with Myc-LRS and Myc-S6K1. At this time, the cells untreated with SAR405 were used as the control. All the quantification data was presented as mean±standard deviation of the values obtained from at least three independent experiments performed separately. Statistical significance was analyzed by student's t-test (*p≤0.05. **p≤0.01).

[2] = system: S6K1 phosphorylation (mTORC1 activity); experiment: Western blotting of phosphorylated S6K1 in knock-down HEK293 cells with exogenous phosphatidic acid; format: cell-based; settings: 100 μM PA, amino acid stimulation
Experimental: Particularly, HEK293 cells were transducted with lentivirus expressing LRS shRNA (shLRS) or scrambled sequence shRNA (control). The cells were cultured in DMEM supplemented with 10% fetal bovine serum (FBS) in a 37° C., 5% CO2 incubator for 3 days. As for the LRS shRNA, shLRS-1 (TRCN0000290440) or shLRS-2 (TRCN0000290511) was used. As for the scrambled sequence shRNA, the sRNA previously described (Yoon, et al., J Cell Biol., 2011 195(3); 435-447) was used. Lentivirus packaging and transduction were performed according to the methods described in the following paper (Sun, et al., Proc Natl Acad Sci USA., 2008, 105(24); 8286-8291). […] The cell lysate was analyzed by Western blotting according to the conventional method. The intensity of the bands obtained by Western blotting was quantified by measuring the X ray film image density using Image J software.
Particularly, HEK293 cells were transduced with shLRS, shRagD lentivirus or lentivirus expressing scrambled sequence shRNA (control), and then stimulated with amino acids by the same manner as described in Example <1-1> in the presence or absence of 100 μM phosphatidic acid (PA), a product of PLD1. Lysates of the cells were analyzed by Western blotting according to the method conventionally performed.

C2C12 cells = experiment: MHC/DAPI immunostaining of differentiated C2C12 cells (differentiation index, fusion index, myotube size); format: cell-based, mouse; settings: given as NP-UNE-L, three days differentiation, FIG. 15
Experimental: Particularly, to investigate the role of the UNE-L domain of LRS, NP-UNE-L was constructed by binding the UNE-L domain of LRS to nanoparticles (NP) through the conventional method.
C2C12 cells, the mouse muscle cells, were maintained in DMEM supplemented with 4.5 g/l of glucose and 10% FBS in a 37° C., 7.5% CO2 incubator. To induce myogenesis, the cells were cultured on a plate coated with 0.2% gelatin until 100% confluence and the culture medium was replaced with the differentiation-inducing medium containing 2% horse serum. The culture medium was replaced every day for 3 days. During differentiation for three days, the differentiation-inducing medium treated group, the differentiation-inducing medium and NP-UNE-L treated group, and the differentiation-inducing medium and NP treated group were compared.
After the differentiation of C2C12 cells for three days, Western blotting was performed with the cell lysate according to the conventional method. To compare the differentiation level of C2C12 cells, C2C12 cells were fixed and immunostained with MHC, a myocyte differentiation marker, and 4′,6-diamidino-2-phenylindole (DAPI), a cell nucleus marker (Yoon et al. 2013 Molecular biology of the cell, 24(23) 3754-3763). […] The differentiation index was calculated as the percentage of nuclei in the myotubes stained with MHC and the fusion index was calculated as the percentage of nuclei in the myotubes with two or more nuclei stained with MHC. The myotube size was calculated as the number of nuclei in the myotube stained with MHC.

[3] = system: tibialis anterior (TA) muscles; experiment: Muscle regeneration after BaCl2 induced muscle injury, NP-UNE-L injected with BaCl2; format: in vivo, BL6 mice; settings: given as NP-UNE-L with BaCl2 into TA, vs NP in contralateral TA, 7 days, FIG. 16
Experimental: Particularly, BaCl2 (prepared in saline at the concentration of 1.2% wt/vol: 50 μl) was injected into the tibialis anterior (TA) muscles of 10-week-old BL6 mice to induce muscle injury (Sun et al., 2011, J. Cell Biol. 192, 69-81). NP-UNE-L was injected with BaCl2 on the left side and NP was injected with BaCl2 on the right side. 7 days later, the mice were sacrificed and the tibialis anterior muscles were separated and placed in 2-methylbutane which was coldly prepared in liquid nitrogen, followed by embedding in TBS tissue freezing medium. Cryosection was performed at −20° C. to the thickness of 10 μm by using a cryostat (Microm HM550; Thermo Fisher Scientific). The prepared sections were placed on non-coated slides, followed by staining with hematoxylin and eosin (H&E). The stained slides were observed through a 10× dry objective lens of a microscope (DMI 4000B; Leica). The stained images were photographed with a 24-bit image camera (RETIGA EXi; Q Imaging) and the regenarating myofiber cross section area (CSA) was measured by image J. CSA was measured only in the myofibers showing the characteristics of regenerating myofiber with the nucleus in the center.

tibialis anterior (TA) = experiment: Muscle regeneration after BaCl2 induced muscle injury in AAV-UNE-L injected tibialis anterior; format: in vivo, BL6 mice; settings: expressed from AAV-UNE-L in TA, vs AAV-GFP contralateral
Experimental: Particularly, AAV-UNE-L was injected into the left tibialis anterior (TA) of 10-week-old BL6 mice and AAV-GFP was injected into the right tibialis anterior (TA) of 10-week-old BL6 mice, and after 7 weeks, BaCl2 (prepared in saline at the concentration of 1.2% wt/vol: 50 μl) was injected to induce muscle injury (Sun et al., 2011, J. Cell Biol. 192, 69-81). 7 days later, the mice were sacrificed and the tibialis anterior muscles were separated and fixed in 10% paraformaldehyde, followed by embedding in paraffin. The section was performed to the thickness of 10 μm, and the prepared sections were placed on non-coated slides, followed by staining with hematoxylin and eosin (H&E). The stained slides were observed through a 10× dry objective lens of a microscope (Olympus CKX3-Houn Microscope). The stained images were photographed with 24-bit image and the regenarating myofiber cross section area (CSA) was measured by image J. CSA was measured only in the myofibers showing the characteristics of regenerating myofiber with the nucleus in the center.

LRS mutation (F50A/Y52A): leucine binding deficient mutant of LRS
activation of Vps34 (Vps34; regardless of the presence or absence of leucine stimulation): did not induce the activation of Vps34

GST-LRS protein: purified GST-LRS (leucyl-tRNA synthetase) protein expressed in E. coli BL21
activity of Vps34 compared to the GST control (Vps34; purified protein added to Vps34 immune complex): about 3 times
activity of Vps34 with leucine stimulation (Vps34; purified protein added to Vps34 immune complex, in the presence of leucine): further increased

C[C@@H]1COCCN1c1cc(=O)n2c(n1)N(Cc1cncc(Cl)c1)[C@H](C(F)(F)F)CC2 [SAR405]
S6K1 phosphorylation increased by LRS overexpression ([1]; HEK293 cells co-transfected with Myc-LRS and Myc-S6K1, SAR405 3 μM, FIG. 3C): reduced
S6K1 phosphorylation induced by total amino acids ([1]; HEK293 cells, FIG. 3B): reduced
concentration at which S6K1 phosphorylation was completely inhibited ([1]; HEK293 cells, tested at 0.1, 0.3, 1, 3 and 10 μM, amino acid stimulation): 3 µM

phosphatidic acid [PA]
amount of phosphorylated S6K1 ([2]; LRS knocked-down, FIG. 11): increased again
amount of S6K1 phosphorylated ([2]; both LRS and RagD knocked-down): partially increased

B1: UNE-L domain of LRS: UNE-L domain of leucyl-tRNA synthetase C-terminus, polypeptide of the amino acid sequence SEQ. ID. NO: 1 (protein, listed as Homo sapiens)
chain: PGVSVSLVNPQPSNGHFSTKIEIRQGDNCDSIIRRLMKMNRGIKDLSKVKLMRFDDPLLGPRRVPVLGKEYTEKTPISEHAVFNVDLMSKKIHLTENGIRVDIGDTIIYLVH
differentiation index of C2C12 cells (C2C12 cells): increased
fusion index of C2C12 cells (C2C12 cells): increased
myotube size (C2C12 cells): increased
CSA of the muscle fibers generated during muscle regeneration [3]: increased
CSA of the muscle fibers generated during muscle regeneration (tibialis anterior (TA); BaCl2 after 7 weeks, 7 days later, FIGS. 18A and 18B): increased
mean value of CSA (tibialis anterior (TA); FIG. 18C): increased significantly
